# Test results reported in patent US20080113383A1 (FIBRO GEN, published 2008).
# Where no end group is shown, it is not given here.
# B1: DTDLDYEALApYIPADDDFQ (peptide)
# peptide: DTDLDYEALAPYIPADDDFQ
# modifications: not fully specified; printed as DTDLDYEALApYIPADDDFQ
# B2: DTDLDIEANApYIPADDDFQ (peptide)
# peptide: DTDLDIEANAPYIPADDDFQ
# B3: DTDLDVEALApYIPADDDFQ (peptide)
# peptide: DTDLDVEALAPYIPADDDFQ
# modifications: not fully specified; printed as DTDLDVEALApYIPADDDFQ
# B4: DTDLDAEAIApYIPADDDFQ (peptide)
# peptide: DTDLDAEAIAPYIPADDDFQ
# B5: DTDLDLEASApYIPADDDFQ (peptide)
# peptide: DTDLDLEASAPYIPADDDFQ
# B6: DTDLDNEALApYIPADDDFQ (peptide)
# peptide: DTDLDNEALAPYIPADDDFQ
# modifications: not fully specified; printed as DTDLDNEALApYIPADDDFQ
# B7: DTDLDTEAYApYIPADDDFQ (peptide)
# peptide: DTDLDTEAYAPYIPADDDFQ
# modifications: not fully specified; printed as DTDLDTEAYApYIPADDDFQ
# B8: DTDLDIEAVApYIPADDDFQ (peptide)
# peptide: DTDLDIEAVAPYIPADDDFQ
# B9: DTDLDTEAIApYIPADDDFQ (peptide)
# peptide: DTDLDTEAIAPYIPADDDFQ
# modifications: not fully specified; printed as DTDLDTEAIApYIPADDDFQ
# B10: DTDLDLEALApYIPADDDFQ (peptide)
# peptide: DTDLDLEALAPYIPADDDFQ
# B11: DTDLDLEAQApYIPADDDFQ (peptide)
# peptide: DTDLDLEAQAPYIPADDDFQ
# B12: DTDLDHEALApYIPADDDFQ (peptide)
# peptide: DTDLDHEALAPYIPADDDFQ
# B13: DTDLDVEAVApYIPADDDFQ (peptide)
# peptide: DTDLDVEAVAPYIPADDDFQ
# modifications: not fully specified; printed as DTDLDVEAVApYIPADDDFQ
# B14: DTDLDTEAFApYIPADDDFQ (peptide)
# peptide: DTDLDTEAFAPYIPADDDFQ
# modifications: not fully specified; printed as DTDLDTEAFApYIPADDDFQ
# B15: DTDLDTEATApYIPADDDFQ (peptide)
# peptide: DTDLDTEATAPYIPADDDFQ
# modifications: not fully specified; printed as DTDLDTEATApYIPADDDFQ
# B16: DTDLDAEATApYIPADDDFQ (peptide)
# peptide: DTDLDAEATAPYIPADDDFQ
# B17: DTDLDVEATApYIPADDDFQ (peptide)
# peptide: DTDLDVEATAPYIPADDDFQ
# modifications: not fully specified; printed as DTDLDVEATApYIPADDDFQ
# B18: DTDLDREALApYIPADDDFQ (peptide)
# peptide: DTDLDREALAPYIPADDDFQ
# modifications: not fully specified; printed as DTDLDREALApYIPADDDFQ
# B19: DTDLDTEAVApYIPADDDFQ (peptide)
# peptide: DTDLDTEAVAPYIPADDDFQ
# modifications: not fully specified; printed as DTDLDTEAVApYIPADDDFQ
# B20: DTDLDAEAAApYIPADDDFQ (peptide)
# peptide: DTDLDAEAAAPYIPADDDFQ
# Biological target: EGLN3
# Test: cell-based or functional assay
row,Binder,Activity (%)* [%]
1,B1,136
2,B2,30.4
3,B3,115
4,B4,25.7
5,B5,25.1
6,B6,57.6
7,B7,36
8,B8,61.3
9,B9,19
10,B10,119
11,B11,39.4
12,B12,55.8
13,B13,49
14,B14,24.1
15,B15,16.5
16,B16,18.5
17,B17,24
18,B18,49.8
19,B19,26.8
20,B20,7.18

# Biological target: EGLN1
# Test: cell-based or functional assay
row,Binder,Activity (%)* [%]
1,B1,94.2
2,B2,33.2
3,B3,31.5
4,B4,31.3
5,B5,29.6
6,B6,27.1
7,B7,24.1
8,B8,23.9
9,B9,23.7
10,B10,102
11,B11,23.4
12,B12,23.4
13,B13,22.8
14,B14,22.2
15,B15,21.9
16,B16,20.8
17,B17,20.4
18,B18,19.9
19,B19,16.6
20,B20,12.6

# Biological target: EGLN2
# Test: cell-based or functional assay
row,Binder,Activity (%)* [%]
1,B1,108
2,B2,34.4
3,B3,29
4,B4,24
5,B5,31.6
6,B6,21.4
7,B7,25.6
8,B8,23.8
9,B9,25.3
10,B10,102
11,B11,19.1
12,B12,21.5
13,B13,16.6
14,B14,28.5
15,B15,24.8
16,B16,19.4
17,B17,13.6
18,B18,15.7
19,B19,19
20,B20,8.63
